The supplement of paper PMC7125110
± gives the standard error. For some assays here: This sample holds only a part of the variants without activity.

B1: glmS ribozyme (parent)
chain: AUAAAAGCGCCAGAACUACAGAAAUGUAGUUGACGAGGAGGAGGUUUAUCGAAUUUUCGGCGGAUGCCUCCAAA

Legend:
Conditions in all cases: with glucosamine-6-phosphate
glucosamine-6-phosphate [1] = variants of: B1; assay: self-cleavage kobs at 40 uM GlcN6P; higher = faster cleavage; RNA array
In short: (§1)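 Weighted Michaelis–Menten fits across concentrations supplied kcat and KM, based on kobs from one- or two-exponential decay fits to normalised per-tile medians. The data came from barcoded ribozyme variants transcribed in situ by E. coli RNA polymerase on sequenced MiSeq chips and tracked at 37 °C by a hybridised Cy3 probe. Glucosamine-6-phosphate (40 μM to 10 mM) in HEPES/KCl/Mg(OAc)2 buffer was flowed in.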

glucosamine-6-phosphate [2] = variants of: B1; assay: kcat; higher = faster cleavage; RNA array
In short: as §1

glucosamine-6-phosphate [3] = variants of: B1; assay: KM; higher = weaker cofactor use; RNA array
In short: as §1

glucosamine-6-phosphate [4] = variants of: B1; assay: self-cleavage kobs at 2500 uM GlcN6P; higher = faster cleavage; RNA array
In short: as §1

glucosamine-6-phosphate [5] = variants of: B1; assay: self-cleavage kobs at 10000 uM GlcN6P; higher = faster cleavage; RNA array
In short: as §1

glucosamine-6-phosphate [6] = variants of: B1; assay: self-cleavage kobs at 640 uM GlcN6P; higher = faster cleavage; RNA array
In short: as §1

glucosamine-6-phosphate [7] = variants of: B1; assay: self-cleavage kobs at 160 uM GlcN6P; higher = faster cleavage; RNA array
In short: as §1

A6U A39C
self-cleavage kobs at 40 uM GlcN6P (glucosamine-6-phosphate [1]): < 1e-05 s⁻¹

U65C C67U
kcat (glucosamine-6-phosphate [2]): 0.000111 ± 9.1e-06 s⁻¹ | KM (glucosamine-6-phosphate [3]): 2040 ± 650 µM | self-cleavage kobs at 2500 uM GlcN6P (glucosamine-6-phosphate [4]): 7.62e-05 ± 2.6e-05 s⁻¹ | self-cleavage kobs at 10000 uM GlcN6P (glucosamine-6-phosphate [5]): 9.15e-05 ± 1e-05 s⁻¹

G59U C67U
kcat (glucosamine-6-phosphate [2]): 2.54e-05 ± 5.9e-06 s⁻¹ | self-cleavage kobs at 2500 uM GlcN6P (glucosamine-6-phosphate [4]): 3.07e-05 ± 7.5e-06 s⁻¹

G59U U69A
kcat (glucosamine-6-phosphate [2]): 1.61e-05 ± 5.1e-06 s⁻¹

C67G U69A
kcat (glucosamine-6-phosphate [2]): 1.14e-05 ± 5.3e-06 s⁻¹

C58U C61G
kcat (glucosamine-6-phosphate [2]): 3.19e-05 ± 9.4e-06 s⁻¹ | self-cleavage kobs at 640 uM GlcN6P (glucosamine-6-phosphate [6]): 5.03e-05 ± 1.4e-05 s⁻¹ | self-cleavage kobs at 2500 uM GlcN6P (glucosamine-6-phosphate [4]): 2.9e-05 ± 1.3e-05 s⁻¹

A6G A14U U31C C50G
self-cleavage kobs at 40 uM GlcN6P (glucosamine-6-phosphate [1]): 4.57e-05 ± 2.1e-05 s⁻¹ | self-cleavage kobs at 10000 uM GlcN6P (glucosamine-6-phosphate [5]): 0.000265 ± 9.7e-05 s⁻¹

A6U G9U
self-cleavage kobs at 40 uM GlcN6P (glucosamine-6-phosphate [1]): < 1e-05 s⁻¹ | self-cleavage kobs at 160 uM GlcN6P (glucosamine-6-phosphate [7]): < 1e-05 s⁻¹ | self-cleavage kobs at 640 uM GlcN6P (glucosamine-6-phosphate [6]): < 1e-05 s⁻¹ | self-cleavage kobs at 2500 uM GlcN6P (glucosamine-6-phosphate [4]): < 1e-05 s⁻¹

G7A U47C
self-cleavage kobs at 40 uM GlcN6P (glucosamine-6-phosphate [1]): < 1e-05 s⁻¹ | self-cleavage kobs at 160 uM GlcN6P (glucosamine-6-phosphate [7]): < 1e-05 s⁻¹ | self-cleavage kobs at 640 uM GlcN6P (glucosamine-6-phosphate [6]): < 1e-05 s⁻¹

A6G G62C
self-cleavage kobs at 40 uM GlcN6P (glucosamine-6-phosphate [1]): < 1e-05 s⁻¹ | self-cleavage kobs at 160 uM GlcN6P (glucosamine-6-phosphate [7]): < 1e-05 s⁻¹ | self-cleavage kobs at 640 uM GlcN6P (glucosamine-6-phosphate [6]): < 1e-05 s⁻¹ | self-cleavage kobs at 2500 uM GlcN6P (glucosamine-6-phosphate [4]): < 1e-05 s⁻¹ | self-cleavage kobs at 10000 uM GlcN6P (glucosamine-6-phosphate [5]): < 1e-05 s⁻¹

G7C G29C
self-cleavage kobs at 40 uM GlcN6P (glucosamine-6-phosphate [1]): < 1e-05 s⁻¹ | self-cleavage kobs at 640 uM GlcN6P (glucosamine-6-phosphate [6]): < 1e-05 s⁻¹ | self-cleavage kobs at 2500 uM GlcN6P (glucosamine-6-phosphate [4]): < 1e-05 s⁻¹ | self-cleavage kobs at 10000 uM GlcN6P (glucosamine-6-phosphate [5]): < 1e-05 s⁻¹

U65C C68G
KM (glucosamine-6-phosphate [3]): 418 ± 130 µM

G60U C67A C68U
kcat (glucosamine-6-phosphate [2]): < 1e-05 s⁻¹ | self-cleavage kobs at 640 uM GlcN6P (glucosamine-6-phosphate [6]): < 1e-05 s⁻¹ | self-cleavage kobs at 10000 uM GlcN6P (glucosamine-6-phosphate [5]): < 1e-05 s⁻¹

C58U U65C
kcat (glucosamine-6-phosphate [2]): < 1e-05 s⁻¹ | self-cleavage kobs at 2500 uM GlcN6P (glucosamine-6-phosphate [4]): < 1e-05 s⁻¹

A6C G7U A12U A15U
self-cleavage kobs at 40 uM GlcN6P (glucosamine-6-phosphate [1]): < 1e-05 s⁻¹ | self-cleavage kobs at 10000 uM GlcN6P (glucosamine-6-phosphate [5]): < 1e-05 s⁻¹

C61A C67U
kcat (glucosamine-6-phosphate [2]): 4.47e-05 ± 1.3e-05 s⁻¹ | self-cleavage kobs at 160 uM GlcN6P (glucosamine-6-phosphate [7]): 2.79e-05 ± 1.1e-05 s⁻¹ | self-cleavage kobs at 640 uM GlcN6P (glucosamine-6-phosphate [6]): 6.41e-05 ± 1.4e-05 s⁻¹ | self-cleavage kobs at 2500 uM GlcN6P (glucosamine-6-phosphate [4]): 4.8e-05 ± 9.3e-06 s⁻¹

U2G A33G
self-cleavage kobs at 40 uM GlcN6P (glucosamine-6-phosphate [1]): < 1e-05 s⁻¹ | self-cleavage kobs at 10000 uM GlcN6P (glucosamine-6-phosphate [5]): < 1e-05 s⁻¹

A6C G37A G41A A42U
self-cleavage kobs at 40 uM GlcN6P (glucosamine-6-phosphate [1]): < 1e-05 s⁻¹ | self-cleavage kobs at 10000 uM GlcN6P (glucosamine-6-phosphate [5]): < 1e-05 s⁻¹

G7C C16A
self-cleavage kobs at 40 uM GlcN6P (glucosamine-6-phosphate [1]): < 1e-05 s⁻¹ | self-cleavage kobs at 160 uM GlcN6P (glucosamine-6-phosphate [7]): < 1e-05 s⁻¹ | self-cleavage kobs at 640 uM GlcN6P (glucosamine-6-phosphate [6]): < 1e-05 s⁻¹ | self-cleavage kobs at 2500 uM GlcN6P (glucosamine-6-phosphate [4]): < 1e-05 s⁻¹ | self-cleavage kobs at 10000 uM GlcN6P (glucosamine-6-phosphate [5]): < 1e-05 s⁻¹

G63U C68A
kcat (glucosamine-6-phosphate [2]): 1.22e-05 ± 2.6e-06 s⁻¹

A6C G43U C67A
self-cleavage kobs at 40 uM GlcN6P (glucosamine-6-phosphate [1]): < 1e-05 s⁻¹

G7C G38U
self-cleavage kobs at 40 uM GlcN6P (glucosamine-6-phosphate [1]): < 1e-05 s⁻¹ | self-cleavage kobs at 160 uM GlcN6P (glucosamine-6-phosphate [7]): < 1e-05 s⁻¹ | self-cleavage kobs at 640 uM GlcN6P (glucosamine-6-phosphate [6]): < 1e-05 s⁻¹ | self-cleavage kobs at 10000 uM GlcN6P (glucosamine-6-phosphate [5]): < 1e-05 s⁻¹

A6C C8A
self-cleavage kobs at 40 uM GlcN6P (glucosamine-6-phosphate [1]): < 1e-05 s⁻¹ | self-cleavage kobs at 160 uM GlcN6P (glucosamine-6-phosphate [7]): < 1e-05 s⁻¹ | self-cleavage kobs at 640 uM GlcN6P (glucosamine-6-phosphate [6]): < 1e-05 s⁻¹ | self-cleavage kobs at 2500 uM GlcN6P (glucosamine-6-phosphate [4]): < 1e-05 s⁻¹ | self-cleavage kobs at 10000 uM GlcN6P (glucosamine-6-phosphate [5]): < 1e-05 s⁻¹

G63A C68U
kcat (glucosamine-6-phosphate [2]): < 1e-05 s⁻¹ | self-cleavage kobs at 40 uM GlcN6P (glucosamine-6-phosphate [1]): < 1e-05 s⁻¹

C67G C71G
kcat (glucosamine-6-phosphate [2]): 1.33e-05 ± 4.1e-06 s⁻¹
